Measurements: patent US20160272693A1 (ZEALAND PHARMA A S, published 2016)
*1 amine or outer side, *2 acyl side, *3 side chain or, on linkers, in order; H or OH if unused. Bridges are numbered along the chain shown (N, C = ends). [ ]: non-standard residue; d: D form. The star is where a group is joined. C20 diacid = O=C(O)CCCCCCCCCCCCCCCCCCC(=O)*; γGlu = O=C(O)[C@H](CCC(=O)[*:2])N[*:1]; Hyp = O=C(O)[C@@H]1C[C@@H](O)CN1; NMeI = CC[C@H](C)[C@H](NC)C(=O)O; Sar = CNCC(=O)O

T1: human amylin receptor 3 (hAMYR3), hCTR2 co-expressed with human receptor activity modifying protein 3 (hRAMP3) (human, UniProt P30988 25-474; O60896 24-148)
T1 sequence (looked up) 1: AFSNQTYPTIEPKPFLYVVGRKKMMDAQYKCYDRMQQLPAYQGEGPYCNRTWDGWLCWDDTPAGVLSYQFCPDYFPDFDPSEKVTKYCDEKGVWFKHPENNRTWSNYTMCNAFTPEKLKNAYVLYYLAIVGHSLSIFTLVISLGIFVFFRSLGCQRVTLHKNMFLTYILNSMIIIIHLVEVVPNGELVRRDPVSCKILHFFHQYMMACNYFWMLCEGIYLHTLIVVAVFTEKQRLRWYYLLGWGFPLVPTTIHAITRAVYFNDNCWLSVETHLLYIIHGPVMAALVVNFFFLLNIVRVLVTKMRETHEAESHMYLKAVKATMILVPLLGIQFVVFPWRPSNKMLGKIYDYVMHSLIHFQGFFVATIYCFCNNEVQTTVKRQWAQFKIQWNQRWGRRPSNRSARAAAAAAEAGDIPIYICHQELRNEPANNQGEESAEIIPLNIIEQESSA
T1 sequence (looked up) 2: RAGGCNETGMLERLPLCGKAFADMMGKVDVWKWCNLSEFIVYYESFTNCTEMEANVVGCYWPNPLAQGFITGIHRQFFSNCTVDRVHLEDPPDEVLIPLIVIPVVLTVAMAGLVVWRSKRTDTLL

B1: [19CD]-isoGlu-R-C( )-NTAT-C( )-ATERLAHFLQRSSF-Gly(Me)-A-Ile(Me)-LSSTEVGSNTP-NH2 (Compd. 62) (peptide)
peptide: {C20 diacid-γGlu}-RCNTATCATERLAHFLQRSSF[Sar]A[NMeI]LSSTEVGSNTP-NH2
modifications: disulfide 2-7
SMILES: CC[C@H](C)[C@@H](C(=O)N[C@@H](CC(C)C)C(=O)N[C@@H](CO)C(=O)N[C@@H](CO)C(=O)N[C@H](C(=O)N[C@@H](CCC(=O)O)C(=O)N[C@H](C(=O)NCC(=O)N[C@@H](CO)C(=O)N[C@@H](CC(N)=O)C(=O)N[C@H](C(=O)N1CCC[C@H]1C(N)=O)[C@@H](C)O)C(C)C)[C@@H](C)O)N(C)C(=O)[C@H](C)NC(=O)CN(C)C(=O)[C@H](Cc1ccccc1)NC(=O)[C@H](CO)NC(=O)[C@H](CO)NC(=O)[C@H](CCCNC(=N)N)NC(=O)[C@H](CCC(N)=O)NC(=O)[C@H](CC(C)C)NC(=O)[C@H](Cc1ccccc1)NC(=O)[C@H](Cc1c[nH]cn1)NC(=O)[C@H](C)NC(=O)[C@H](CC(C)C)NC(=O)[C@H](CCCNC(=N)N)NC(=O)[C@H](CCC(=O)O)NC(=O)[C@@H](NC(=O)[C@H](C)NC(=O)[C@@H]1CSSC[C@H](NC(=O)[C@H](CCCNC(=N)N)NC(=O)CC[C@H](NC(=O)CCCCCCCCCCCCCCCCCCC(=O)O)C(=O)O)C(=O)N[C@@H](CC(N)=O)C(=O)N[C@@H]([C@@H](C)O)C(=O)N[C@@H](C)C(=O)N[C@@H]([C@@H](C)O)C(=O)N1)[C@@H](C)O
B2: [19CD]-isoGlu-R-C( )-PTAT-C( )-ATQRLAHFLQRSSF-Gly(Me)-A-Ile(Me)-LSSTEVGSNT-Hyp-NH2 (Compd. 64) (peptide)
peptide: {C20 diacid}-[γGlu]RCPTATCATQRLAHFLQRSSF[Sar]A[NMeI]LSSTEVGSNT[Hyp]-NH2
modifications: disulfide 3-8
SMILES: CC[C@H](C)[C@@H](C(=O)N[C@@H](CC(C)C)C(=O)N[C@@H](CO)C(=O)N[C@@H](CO)C(=O)N[C@H](C(=O)N[C@@H](CCC(=O)O)C(=O)N[C@H](C(=O)NCC(=O)N[C@@H](CO)C(=O)N[C@@H](CC(N)=O)C(=O)N[C@H](C(=O)N1C[C@H](O)C[C@H]1C(N)=O)[C@@H](C)O)C(C)C)[C@@H](C)O)N(C)C(=O)[C@H](C)NC(=O)CN(C)C(=O)[C@H](Cc1ccccc1)NC(=O)[C@H](CO)NC(=O)[C@H](CO)NC(=O)[C@H](CCCNC(=N)N)NC(=O)[C@H](CCC(N)=O)NC(=O)[C@H](CC(C)C)NC(=O)[C@H](Cc1ccccc1)NC(=O)[C@H](Cc1c[nH]cn1)NC(=O)[C@H](C)NC(=O)[C@H](CC(C)C)NC(=O)[C@H](CCCNC(=N)N)NC(=O)[C@H](CCC(N)=O)NC(=O)[C@@H](NC(=O)[C@H](C)NC(=O)[C@@H]1CSSC[C@H](NC(=O)[C@H](CCCNC(=N)N)NC(=O)CC[C@H](NC(=O)CCCCCCCCCCCCCCCCCCC(=O)O)C(=O)O)C(=O)N2CCC[C@H]2C(=O)N[C@@H]([C@@H](C)O)C(=O)N[C@@H](C)C(=O)N[C@@H]([C@@H](C)O)C(=O)N1)[C@@H](C)O
B3: [19CD]-isoGlu-R-C( )-GTAT-C( )-ATERLAHFLNRSSF-Gly(Me)-A-Ile(Me)-LSSTEVGSNT-Hyp-NH2 (Compd. 6) (peptide)
peptide: {C20 diacid}-[γGlu]RCGTATCATERLAHFLNRSSF[Sar]A[NMeI]LSSTEVGSNT[Hyp]-NH2
modifications: disulfide 3-8
SMILES: CC[C@H](C)[C@@H](C(=O)N[C@@H](CC(C)C)C(=O)N[C@@H](CO)C(=O)N[C@@H](CO)C(=O)N[C@H](C(=O)N[C@@H](CCC(=O)O)C(=O)N[C@H](C(=O)NCC(=O)N[C@@H](CO)C(=O)N[C@@H](CC(N)=O)C(=O)N[C@H](C(=O)N1C[C@H](O)C[C@H]1C(N)=O)[C@@H](C)O)C(C)C)[C@@H](C)O)N(C)C(=O)[C@H](C)NC(=O)CN(C)C(=O)[C@H](Cc1ccccc1)NC(=O)[C@H](CO)NC(=O)[C@H](CO)NC(=O)[C@H](CCCNC(=N)N)NC(=O)[C@H](CC(N)=O)NC(=O)[C@H](CC(C)C)NC(=O)[C@H](Cc1ccccc1)NC(=O)[C@H](Cc1c[nH]cn1)NC(=O)[C@H](C)NC(=O)[C@H](CC(C)C)NC(=O)[C@H](CCCNC(=N)N)NC(=O)[C@H](CCC(=O)O)NC(=O)[C@@H](NC(=O)[C@H](C)NC(=O)[C@@H]1CSSC[C@H](NC(=O)[C@H](CCCNC(=N)N)NC(=O)CC[C@H](NC(=O)CCCCCCCCCCCCCCCCCCC(=O)O)C(=O)O)C(=O)NCC(=O)N[C@@H]([C@@H](C)O)C(=O)N[C@@H](C)C(=O)N[C@@H]([C@@H](C)O)C(=O)N1)[C@@H](C)O
B4: [19CD]-isoGlu-R-C( )-PTAT-C( )-ATERLAHFLQRSSF-Gly(Me)-A-Ile(Me)-LSSTEVGSNT-Hyp-NH2 (Compd. 63) (peptide)
peptide: {C20 diacid}-[γGlu]RCPTATCATERLAHFLQRSSF[Sar]A[NMeI]LSSTEVGSNT[Hyp]-NH2
modifications: disulfide 3-8
SMILES: CC[C@H](C)[C@@H](C(=O)N[C@@H](CC(C)C)C(=O)N[C@@H](CO)C(=O)N[C@@H](CO)C(=O)N[C@H](C(=O)N[C@@H](CCC(=O)O)C(=O)N[C@H](C(=O)NCC(=O)N[C@@H](CO)C(=O)N[C@@H](CC(N)=O)C(=O)N[C@H](C(=O)N1C[C@H](O)C[C@H]1C(N)=O)[C@@H](C)O)C(C)C)[C@@H](C)O)N(C)C(=O)[C@H](C)NC(=O)CN(C)C(=O)[C@H](Cc1ccccc1)NC(=O)[C@H](CO)NC(=O)[C@H](CO)NC(=O)[C@H](CCCNC(=N)N)NC(=O)[C@H](CCC(N)=O)NC(=O)[C@H](CC(C)C)NC(=O)[C@H](Cc1ccccc1)NC(=O)[C@H](Cc1c[nH]cn1)NC(=O)[C@H](C)NC(=O)[C@H](CC(C)C)NC(=O)[C@H](CCCNC(=N)N)NC(=O)[C@H](CCC(=O)O)NC(=O)[C@@H](NC(=O)[C@H](C)NC(=O)[C@@H]1CSSC[C@H](NC(=O)[C@H](CCCNC(=N)N)NC(=O)CC[C@H](NC(=O)CCCCCCCCCCCCCCCCCCC(=O)O)C(=O)O)C(=O)N2CCC[C@H]2C(=O)N[C@@H]([C@@H](C)O)C(=O)N[C@@H](C)C(=O)N[C@@H]([C@@H](C)O)C(=O)N1)[C@@H](C)O
B5: [19CD]-isoGlu-R-C( )-NTAT-C( )-ATQRLAHFLQRSSF-Gly(Me)-A-Ile(Me)-LSSTEVGSNTP-NH2 (Compd. 61) (peptide)
peptide: {C20 diacid}-[γGlu]RCNTATCATQRLAHFLQRSSF[Sar]A[NMeI]LSSTEVGSNTP-NH2
modifications: disulfide 3-8
SMILES: CC[C@H](C)[C@@H](C(=O)N[C@@H](CC(C)C)C(=O)N[C@@H](CO)C(=O)N[C@@H](CO)C(=O)N[C@H](C(=O)N[C@@H](CCC(=O)O)C(=O)N[C@H](C(=O)NCC(=O)N[C@@H](CO)C(=O)N[C@@H](CC(N)=O)C(=O)N[C@H](C(=O)N1CCC[C@H]1C(N)=O)[C@@H](C)O)C(C)C)[C@@H](C)O)N(C)C(=O)[C@H](C)NC(=O)CN(C)C(=O)[C@H](Cc1ccccc1)NC(=O)[C@H](CO)NC(=O)[C@H](CO)NC(=O)[C@H](CCCNC(=N)N)NC(=O)[C@H](CCC(N)=O)NC(=O)[C@H](CC(C)C)NC(=O)[C@H](Cc1ccccc1)NC(=O)[C@H](Cc1c[nH]cn1)NC(=O)[C@H](C)NC(=O)[C@H](CC(C)C)NC(=O)[C@H](CCCNC(=N)N)NC(=O)[C@H](CCC(N)=O)NC(=O)[C@@H](NC(=O)[C@H](C)NC(=O)[C@@H]1CSSC[C@H](NC(=O)[C@H](CCCNC(=N)N)NC(=O)CC[C@H](NC(=O)CCCCCCCCCCCCCCCCCCC(=O)O)C(=O)O)C(=O)N[C@@H](CC(N)=O)C(=O)N[C@@H]([C@@H](C)O)C(=O)N[C@@H](C)C(=O)N[C@@H]([C@@H](C)O)C(=O)N1)[C@@H](C)O
B6: [19CD]-isoGlu-R-C( )-NTAT-C( )-ATERLAHFLQRSSF-Gly(Me)-A-Ile(Me)-LSSTEVGSDT-Hyp-NH2 (Compd. 60) (peptide)
peptide: {C20 diacid-γGlu}-RCNTATCATERLAHFLQRSSF[Sar]A[NMeI]LSSTEVGSDT[Hyp]-NH2
modifications: disulfide 2-7
SMILES: CC[C@H](C)[C@@H](C(=O)N[C@@H](CC(C)C)C(=O)N[C@@H](CO)C(=O)N[C@@H](CO)C(=O)N[C@H](C(=O)N[C@@H](CCC(=O)O)C(=O)N[C@H](C(=O)NCC(=O)N[C@@H](CO)C(=O)N[C@@H](CC(=O)O)C(=O)N[C@H](C(=O)N1C[C@H](O)C[C@H]1C(N)=O)[C@@H](C)O)C(C)C)[C@@H](C)O)N(C)C(=O)[C@H](C)NC(=O)CN(C)C(=O)[C@H](Cc1ccccc1)NC(=O)[C@H](CO)NC(=O)[C@H](CO)NC(=O)[C@H](CCCNC(=N)N)NC(=O)[C@H](CCC(N)=O)NC(=O)[C@H](CC(C)C)NC(=O)[C@H](Cc1ccccc1)NC(=O)[C@H](Cc1c[nH]cn1)NC(=O)[C@H](C)NC(=O)[C@H](CC(C)C)NC(=O)[C@H](CCCNC(=N)N)NC(=O)[C@H](CCC(=O)O)NC(=O)[C@@H](NC(=O)[C@H](C)NC(=O)[C@@H]1CSSC[C@H](NC(=O)[C@H](CCCNC(=N)N)NC(=O)CC[C@H](NC(=O)CCCCCCCCCCCCCCCCCCC(=O)O)C(=O)O)C(=O)N[C@@H](CC(N)=O)C(=O)N[C@@H]([C@@H](C)O)C(=O)N[C@@H](C)C(=O)N[C@@H]([C@@H](C)O)C(=O)N1)[C@@H](C)O
B7: [19CD]-isoGlu-R-C( )-NTAT-C( )-ATQRLADFLQRSSF-Gly(Me)-A-Ile(Me)-LSSTEVGSNTP-NH2 (Compd. 65) (peptide)
peptide: {C20 diacid-γGlu}-RCNTATCATQRLADFLQRSSF[Sar]A[NMeI]LSSTEVGSNTP-NH2
modifications: disulfide 2-7
SMILES: CC[C@H](C)[C@@H](C(=O)N[C@@H](CC(C)C)C(=O)N[C@@H](CO)C(=O)N[C@@H](CO)C(=O)N[C@H](C(=O)N[C@@H](CCC(=O)O)C(=O)N[C@H](C(=O)NCC(=O)N[C@@H](CO)C(=O)N[C@@H](CC(N)=O)C(=O)N[C@H](C(=O)N1CCC[C@H]1C(N)=O)[C@@H](C)O)C(C)C)[C@@H](C)O)N(C)C(=O)[C@H](C)NC(=O)CN(C)C(=O)[C@H](Cc1ccccc1)NC(=O)[C@H](CO)NC(=O)[C@H](CO)NC(=O)[C@H](CCCNC(=N)N)NC(=O)[C@H](CCC(N)=O)NC(=O)[C@H](CC(C)C)NC(=O)[C@H](Cc1ccccc1)NC(=O)[C@H](CC(=O)O)NC(=O)[C@H](C)NC(=O)[C@H](CC(C)C)NC(=O)[C@H](CCCNC(=N)N)NC(=O)[C@H](CCC(N)=O)NC(=O)[C@@H](NC(=O)[C@H](C)NC(=O)[C@@H]1CSSC[C@H](NC(=O)[C@H](CCCNC(=N)N)NC(=O)CC[C@H](NC(=O)CCCCCCCCCCCCCCCCCCC(=O)O)C(=O)O)C(=O)N[C@@H](CC(N)=O)C(=O)N[C@@H]([C@@H](C)O)C(=O)N[C@@H](C)C(=O)N[C@@H]([C@@H](C)O)C(=O)N1)[C@@H](C)O

Molecular target: T1, human amylin receptor 3 (hAMYR3), hCTR2 …
Assay: cell-based or functional assay

Binder	hAMYR3 EC50 (nM); cAMP induction
B1	0.22 nM
B2	0.15 nM
B3	0.22 nM
B4	0.37 nM
B5	0.17 nM
B6	0.09 nM
B7	0.26 nM
